Patent US20180371086A1 (Gilead, published 2018)

What was measured:
Human FcRn [1] = biological target: T1, Human FcRn (human, UniProt P55899 24-297; P61769 21-119); test: ELISA, FcRn coated on plate; pH 7.0/6.0 ratio against that of PGT121
T1 construct: also called neonatal Fc receptor

Human FcRn [2] = biological target: T1, Human FcRn; test: ELISA, FcRn coated on plate, pH 7.0
Human FcRn [3] = biological target: T1, Human FcRn; test: ELISA, FcRn coated on plate; ratio of EC50 at pH 7.0 to pH 6.0
[4] = biological target: HIV-1 Env of virus MGRM-Acute-B-010 (HIV-1); test: cell-based or functional assay
[5] = biological target: HIV-1 Env of virus MGRM-F1-014 (HIV-1); test: cell-based or functional assay
[6] = biological target: HIV-1 Env of virus MGRM-C-006 (HIV-1); test: cell-based or functional assay
[7] = biological target: HIV-1 Env of virus MGRM-Acute-B-009 (HIV-1); test: cell-based or functional assay
[8] = biological target: HIV-1 Env of virus MGRM-Chronic-B-016 (HIV-1); test: cell-based or functional assay
[9] = biological target: HIV-1 Env of virus MGRM-Acute-B-003 (HIV-1); test: cell-based or functional assay
[10] = biological target: HIV-1 Env of virus MGRM-AG-005 (HIV-1); test: cell-based or functional assay
[11] = biological target: HIV-1 Env of virus MGRM-A-012 (HIV-1); test: cell-based or functional assay
[12] = biological target: HIV-1 Env of virus MGRM-Chronic-B-022 (HIV-1); test: cell-based or functional assay
[13] = biological target: HIV-1 Env of virus MGRM-Chronic-B-007 (HIV-1); test: cell-based or functional assay
[14] = biological target: HIV-1 Env (gp120) of virus CH106 (HIV-1); test: cell-based or functional assay
[15] = biological target: HIV-1 Env (gp120) of virus 8339 (HIV-1); test: cell-based or functional assay
[16] = biological target: HIV-1 Env (gp120) of virus 8106 (HIV-1); test: cell-based or functional assay
[17] = biological target: HIV-1 Env (gp120) of virus 7015 (HIV-1); test: cell-based or functional assay
[18] = biological target: HIV-1 Env (gp120) of virus WITO (HIV-1 (clone WITO)); test: cell-based or functional assay
[19] = biological target: HIV-1 Env (gp120) of virus 7406 (HIV-1); test: cell-based or functional assay
[20] = biological target: HIV-1 Env (gp120) of virus 8176 (HIV-1); test: cell-based or functional assay
[21] = biological target: HIV-1 Env (gp120) of virus 1489 (HIV-1); test: cell-based or functional assay
[22] = biological target: HIV-1 Env (gp120) of virus BaL (HIV-1); test: cell-based or functional assay
[23] = biological target: HIV-1 Env (gp120) of virus 7467 (HIV-1); test: cell-based or functional assay
[24] = biological target: HIV-1 Env (gp120) of virus 657 (HIV-1); test: cell-based or functional assay
[25] = biological target: HIV-1 Env (gp120) of virus 727 (HIV-1); test: cell-based or functional assay
[26] = biological target: HIV-1 Env (gp120) of virus 593 (HIV-1); test: cell-based or functional assay
[27] = biological target: HIV-1 Env (gp120) of virus 7552 (HIV-1); test: cell-based or functional assay
[28] = biological target: HIV-1 Env (gp120) of virus 8089 (HIV-1); test: cell-based or functional assay
[29] = biological target: HIV-1 Env (gp120) of virus REJO (HIV-1); test: cell-based or functional assay
[30] = biological target: HIV-1 Env (gp120) of virus 7576 (HIV-1); test: cell-based or functional assay
[31] = biological target: HIV-1 Env (gp120) of virus 8320 (HIV-1); test: cell-based or functional assay
[32] = biological target: HIV-1 Env (gp120) of virus 8398 (HIV-1); test: cell-based or functional assay
[33] = biological target: HIV-1 Env (gp120) of virus CH058 (HIV-1); test: cell-based or functional assay
[34] = biological target: HIV-1 Env (gp120) of virus 712 (HIV-1); test: cell-based or functional assay
[35] = biological target: HIV-1 Env (gp120) of virus 7051 (HIV-1); test: cell-based or functional assay

T1 sequence (P55899 24-297 limits assumed, chain 1 of 2): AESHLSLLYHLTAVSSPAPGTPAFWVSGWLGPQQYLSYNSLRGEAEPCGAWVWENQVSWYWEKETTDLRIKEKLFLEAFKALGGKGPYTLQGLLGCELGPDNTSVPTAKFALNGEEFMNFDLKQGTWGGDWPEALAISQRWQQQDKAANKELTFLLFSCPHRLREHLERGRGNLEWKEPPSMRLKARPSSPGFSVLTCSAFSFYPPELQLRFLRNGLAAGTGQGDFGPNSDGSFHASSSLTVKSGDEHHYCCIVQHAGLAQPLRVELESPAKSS
T1 sequence (P61769 21-119 limits assumed, chain 2 of 2): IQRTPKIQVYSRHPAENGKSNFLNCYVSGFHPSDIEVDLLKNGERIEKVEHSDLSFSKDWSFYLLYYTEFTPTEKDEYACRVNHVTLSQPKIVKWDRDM

B1: PGT121.60 hIgG1/hLambda (antibody)
heavy: QMQLQESGPGLVKPSETLSLTCSVSGASISDSYWSWIRRSPGKGLEWIGYVHKSGDTNYNPSLKSRVHLSLDTSKNQVSLSLTGVTAADSGKYYCARTLHGRRIYGIVAFNEWFTYFYMDVWGTGTQVTVSSASTKGPSVFPLAPSSKSTSGGTAALGCLVKDYFPEPVTVSWNSGALTSGVHTFPAVLQSSGLYSLSSVVTVPSSSLGTQTYICNVNHKPSNTKVDKKVEPKSCDKTHTCPPCPAPELLAGPDVFLFPPKPKDTLMISRTPEVTCVVVDVSHEDPEVKFNWYVDGVEVHNAKTKPREEQYNSTYRVVSVLTVLHQDWLNGKEYKCKVSNKALPLPEEKTISKAKGQPREPQVYTLPPSREEMTKNQVSLTCLVKGFYPSDIAVEWESNGQPENNYKTTPPVLDSDGSFFLYSKLTVDKSRWQQGNVFSCSVLHEALHSHYTQKSLSLSPGK
light: not shown
In the case of B1, the “Fold vs PGT121” value (Human FcRn [1]) is reported as 11 fold, the EC50 (Human FcRn [2]) is reported as 78 nM and the “Ratio pH 7.0/6.0” value (Human FcRn [3]) is reported as 355. For the same binder, the “PGT121.60 IC50” value [4] was 0.0328 µg/mL, the “PGT121.60 IC50” value [5] was 0.0509 µg/mL and the “PGT121.60 IC50” value [6] was 0.003 µg/mL. The “PGT121.60 IC50” value [7] was 0.0016 µg/mL, the “PGT121.60 IC50” value [8] was 0.0283 µg/mL and the “PGT121.60 IC50” value [9] was 0.0179 µg/mL. For the same binder, the “PGT121.60 IC50” value [10] was 0.203 µg/mL, the “PGT121.60 IC50” value [11] was 0.0397 µg/mL and the “PGT121.60 IC50” value [12] was 11.5 µg/mL. For the same binder, the “PGT121.60 IC50” value [13] was 2.55 µg/mL, the “EC50 (µg/mL), killing of HIV-infected cells (Mean)” value (from here on “EC50 (µg/mL), killing”) [14] was 6.17 µg/mL and the “Emax, killing of HIV-infected cells (Mean)” value (from here on “Emax, killing”) [14] was 46%. For the same binder, the “EC50 (µg/mL), killing” value [15] was 3.81 µg/mL, the “Emax, killing” value [15] was 13% and the “EC50 (µg/mL), killing” value [16] was 0.11 µg/mL. The “Emax, killing” value [16] was 75%, the “EC50 (µg/mL), killing” value [17] was 0.516 µg/mL and the “Emax, killing” value [17] was 55%. The “EC50 (µg/mL), killing” value [18] was 2.52 µg/mL, the “Emax, killing” value [18] was 71% and the “EC50 (µg/mL), killing” value [19] was 0.09 µg/mL. The “Emax, killing” value [19] was 63%, the “EC50 (µg/mL), killing” value [20] was 1.01 µg/mL and the “Emax, killing” value [20] was 56%. For the same binder, the “EC50 (µg/mL), killing” value [21] was 0.276 µg/mL, the “Emax, killing” value [21] was 70% and the “EC50 (µg/mL), killing” value [22] was 0.048 µg/mL. For the same binder, the “Emax, killing” value [22] was 73%, the “EC50 (µg/mL), killing” value [23] was 0.139 µg/mL and the “Emax, killing” value [23] was 54%. For the same binder, the “EC50 (µg/mL), killing” value [24] was 1.44 µg/mL, the “Emax, killing” value [24] was 62% and the “EC50 (µg/mL), killing” value [25] was 0.034 µg/mL. For the same binder, the “Emax, killing” value [25] was 66%, the “EC50 (µg/mL), killing” value [26] was 0.912 µg/mL and the “Emax, killing” value [26] was 56%. The “EC50 (µg/mL), killing” value [27] was 0.011 µg/mL, the “Emax, killing” value [27] was 66% and the “EC50 (µg/mL), killing” value [28] was 0.226 µg/mL. The “Emax, killing” value [28] was 64%, the “EC50 (µg/mL), killing” value [29] was 2.6 µg/mL and the “Emax, killing” value [29] was 0%. For the same binder, the “EC50 (µg/mL), killing” value [30] was 0.016 µg/mL, the “Emax, killing” value [30] was 71% and the “EC50 (µg/mL), killing” value [31] was 2.12 µg/mL. For the same binder, the “Emax, killing” value [31] was 0%, the “EC50 (µg/mL), killing” value [32] was 0.067 µg/mL and the “Emax, killing” value [32] was 76%. For the same binder, the “EC50 (µg/mL), killing” value [33] was 0.16 µg/mL, the “Emax, killing” value [33] was 71% and the “EC50 (µg/mL), killing” value [34] was 0.084 µg/mL. For the same binder, the “Emax, killing” value [34] was 71%, the “EC50 (µg/mL), killing” value [35] was 0.394 µg/mL and the “Emax, killing” value [35] was 49%.
